Laboratory results published in PMC8892516, “Intragenic suppressors unravel the role of the SCREAM ACT-like domain for bHLH partner selectivity in stomatal development” (Proceedings of the National Academy of Sciences of the …, 2022).
Positions count from the first letter of the chain named. Names and notes keep the numbering of the source.

B1: SCRM ACTL L484F (405-494) (domain or fragment, Arabidopsis thaliana, UniProt Q9LSE2 405-494, looked up)
chain: KGQQARVEVRLREGRAVNIHMFCGRRPGLLLATMKALDNLGLDVQQAVISCFNGFALDVFRAEQCQEGQEILPDQIKAVFFDTAGYAGMI
notes: SCREAM (SCRM, ICE1), Arabidopsis thaliana, At3G26744, C-terminal ACT-like domain, residues 405-494, with L484F (the methods print L485F); also called SCRM L484F ACTL; source: E. coli BL21, purified (glutathione resin, Superdex-200)
B2: MUTE (1-202), recombinant (natural protein, Arabidopsis thaliana, UniProt Q9M8K6 1-202, looked up)
chain: MSHIAVERNRRRQMNEHLKSLRSLTPCFYIKRGDQASIIGGVIEFIKELQQLVQVLESKKRRKTLNRPSFPYDHQTIEPSSLGAATTRVPFSRIENVMTTSTFKEVGACCNSPHANVEAKISGSNVVLRVVSRRIVGQLVKIISVLEKLSFQVLHLNISSMEETVLYFFVVKIGLECHLSLEELTLEVQKSFVSDEVIVSTN
notes: MUTE, Arabidopsis thaliana, residues 1-202; MUTE (1-202) was cloned both in pGEX-4T-1 (N-terminal GST, thrombin cleaved) and in pET28a (N-terminal His tag); also called purified MUTE; MUTE-HIS; source: E. coli BL21, purified (Ni-NTA, Superdex-200)
B3: ΔNFAMA, recombinant (domain or fragment)
chain: ESQRMTHIAVERNRRKQMNEHLRVLRSLMPGSYVQRGDQASIIGGAIEFVRELEQLLQCLESQKRRRILGETGRDMTTTTTSSSSPITTVANQAQPLIITGNVTELEGGGGLREETAENKSCLADVEVKLLGFDAMIKILSRRRPGQLIKTIAALEDLHLSILHTNITTMEQTVLYSFNVKITSETRFTAEDIASSIQQIFSFIHANTNISGSSNLGNIVFT
modifications: Limits not printed. Start set by analogy with the printed ΔNSPCH 98-364, which starts one residue before its annotated bHLH (99); FAMA bHLH is 194-245. Runs to the native C-terminus, including the …
B4: SCRMΔC (1-404), recombinant (domain or fragment, Arabidopsis thaliana, UniProt Q9LSE2 1-404, looked up)
chain: MGLDGNNGGGVWLNGGGGEREENEEGSWGRNQEDGSSQFKPMLEGDWFSSNQPHPQDLQMLQNQPDFRYFGGFPFNPNDNLLLQHSIDSSSSCSPSQAFSLDPSQQNQFLSTNNNKGCLLNVPSSANPFDNAFEFGSESGFLNQIHAPISMGFGSLTQLGNRDLSSVPDFLSARSLLAPESNNNNTMLCGGFTAPLELEGFGSPANGGFVGNRAKVLKPLEVLASSGAQPTLFQKRAAMRQSSGSKMGNSESSGMRRFSDDGDMDETGIEVSGLNYESDEINESGKAAESVQIGGGGKGKKKGMPAKNLMAERRRRKKLNDRLYMLRSVVPKISKMDRASILGDAIDYLKELLQRINDLHNELESTPPGSLPPTSSSFHPLTPTPQTLSCRVKEELCPSSLPSP
notes: SCREAM (SCRM, ICE1), Arabidopsis thaliana, At3G26744, residues 1-404; the purification methods tell thrombin cleavage; also called SCRM1ΔC; source: E. coli BL21, purified (glutathione resin, thrombin, Superdex-200); not shown: GST, N-terminal, cleaved
B5: MUTE-ACTL (114-202) (domain or fragment, Arabidopsis thaliana, UniProt Q9M8K6 114-202, looked up)
chain: HANVEAKISGSNVVLRVVSRRIVGQLVKIISVLEKLSFQVLHLNISSMEETVLYFFVVKIGLECHLSLEELTLEVQKSFVSDEVIVSTN
notes: MUTE, Arabidopsis thaliana, ACT-like domain, residues 114-202; source: E. coli BL21, purified (glutathione resin, thrombin, Superdex-200); not shown: GST, N-terminal, cleaved
B6: ΔNSPCH (98-364), recombinant (domain or fragment, Arabidopsis thaliana, UniProt Q700C7 98-364, looked up)
chain: GQQKMSHVTVERNRRKQMNEHLTVLRSLMPCFYVKRGDQASIIGGVVEYISELQQVLQSLEAKKQRKTYAEVLSPRVVPSPRPSPPVLSPRKPPLSPRINHHQIHHHLLLPPISPRTPQPTSPYRAIPPQLPLIPQPPLRSYSSLASCSSLGDPPPYSPASSSSSPSVSSNHESSVINELVANSKSALADVEVKFSGANVLLKTVSHKIPGQVMKIIAALEDLALEILQVNINTVDETMLNSFTIKIGIECQLSAEELAQQIQQTFC
notes: BLI and ITC name it only SPCH; ΔNSPCH (98-364) is the only long recombinant SPCH construct that the methods list; also called purified SPCH; source: E. coli BL21, purified (glutathione resin, thrombin, Superdex-200); not shown: GST, N-terminal, cleaved

Columns and labels:
SPCH-ACTL (285-364) = target: T1, SPCH-ACTL (285-364) (Arabidopsis thaliana, UniProt Q700C7 285-364); assay: ITC; Malvern PEAQ-ITC; 150 µM SCRM ACTL/SCRM L484F ACTL injected into 15 µM SPCH ACTL/MUTE ACTL; PBS, pH 7.2 (Table S3; methods: pH 7.4); 25 °C; means of two experiments; conditions: both partners purified
T1 construct: also called SPCH ACTL domain; source: E. coli BL21, purified (glutathione resin, thrombin, Superdex-200); not shown: GST, N-terminal, cleaved
T1 sequence (looked up): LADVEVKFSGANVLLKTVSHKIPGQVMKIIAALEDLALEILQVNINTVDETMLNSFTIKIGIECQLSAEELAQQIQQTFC

[1] = target: GST-fused SCRMΔC (1-404) (Arabidopsis thaliana) (UniProt Q9LSE2); assay: BLI; as a3, samples incubated for 30 min with a 1:4 molar ratio of the TMM promoter DNA fragment
[2] = target: GST-fused SCRMΔC (1-404) (Arabidopsis thaliana) (UniProt Q9LSE2); assay: BLI; as a3, samples incubated for 30 min with a 1:4 molar ratio of the synthetic E-box DNA fragment
[3] = target: T2, SCRM (1-494), recombinant (Arabidopsis thaliana, UniProt Q9LSE2 1-494); assay: ITC; Malvern PEAQ-ITC, 25 °C, PBS pH 7.4; 40 μM SCRM/SCRMΔC injected into 4 μM SPCH/MUTE/FAMA; single binding site model; conditions: both partners purified
T2 construct: SCREAM (SCRM, ICE1), Arabidopsis thaliana, At3G26744, residues 1-494; the purification methods tell thrombin cleavage; source: E. coli BL21, purified (glutathione resin, thrombin, Superdex-200); not shown: GST, N-terminal, cleaved
T2 sequence (looked up): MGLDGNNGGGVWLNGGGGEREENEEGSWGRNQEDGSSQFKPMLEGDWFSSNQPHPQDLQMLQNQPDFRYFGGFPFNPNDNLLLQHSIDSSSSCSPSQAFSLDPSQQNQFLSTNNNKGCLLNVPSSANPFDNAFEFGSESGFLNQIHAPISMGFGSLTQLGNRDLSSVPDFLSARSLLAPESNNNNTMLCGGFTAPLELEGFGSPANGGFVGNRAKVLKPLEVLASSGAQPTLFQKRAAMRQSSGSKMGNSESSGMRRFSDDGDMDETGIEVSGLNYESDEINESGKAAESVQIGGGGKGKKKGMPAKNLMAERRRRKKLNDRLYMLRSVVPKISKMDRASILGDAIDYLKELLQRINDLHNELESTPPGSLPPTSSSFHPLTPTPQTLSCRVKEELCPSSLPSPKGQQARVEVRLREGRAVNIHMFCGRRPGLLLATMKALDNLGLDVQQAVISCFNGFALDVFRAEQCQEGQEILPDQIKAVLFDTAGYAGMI

GST-fused SCRM (1-494) = target: T3, GST-fused SCRM (1-494) (Arabidopsis thaliana, UniProt Q9LSE2 1-494); assay: BLI; Octet Red96; anti-GST probes loaded with 500 nM GST-SCRM or GST-SCRMΔC; SPCH/MUTE/FAMA as analyte at 3.12-200 nM; 30 °C; 1x PBS with 0.02% Tween 20; no DNA; 1:1 model; conditions: both partners purified
T3 construct: SCREAM (SCRM, ICE1), Arabidopsis thaliana, At3G26744, residues 1-494; GST kept for loading on anti-GST probes; also called GST SCRM; GST-tagged SCRM; source: E. coli BL21, purified (glutathione agarose resin); not shown: GST, N-terminal, kept
T3 sequence (looked up): T2 sequence (looked up)

[4] = target: B4; assay: ITC; Malvern PEAQ-ITC, 25 °C, PBS pH 7.4; 40 μM SCRM/SCRMΔC injected into 4 μM SPCH/MUTE/FAMA; single binding site model; conditions: both partners purified
GST-fused SCRMΔC (1-404) = target: T4, GST-fused SCRMΔC (1-404) (Arabidopsis thaliana, UniProt Q9LSE2 1-404); assay: BLI; Octet Red96; anti-GST probes loaded with 500 nM GST-SCRM or GST-SCRMΔC; SPCH/MUTE/FAMA as analyte at 3.12-200 nM; 30 °C; 1x PBS with 0.02% Tween 20; no DNA; 1:1 model; conditions: both partners purified
T4 construct: SCREAM (SCRM, ICE1), Arabidopsis thaliana, At3G26744, residues 1-404; GST kept for loading on anti-GST probes; also called GST SCRMΔC; SCRM1ΔC; source: E. coli BL21, purified (glutathione agarose resin); not shown: GST, N-terminal, kept
T4 sequence (looked up): B4 chain

[5] = target: B6; assay: ITC; Malvern PEAQ-ITC, 25 °C, PBS pH 7.4; 40 μM SCRM/SCRMΔC injected into 4 μM SPCH/MUTE/FAMA; single binding site model; conditions: both partners purified
ΔNFAMA, recombinant = target: B3; assay: as above; conditions: both partners purified
SCRM ACTL (405-494) = target: T5, SCRM ACTL (405-494) (Arabidopsis thaliana, UniProt Q9LSE2 405-494); assay: ITC; Malvern PEAQ-ITC, 25 °C, PBS pH 7.4; 150 μM SCRM ACTL/SCRM L484F ACTL injected into 15 μM SPCH ACTL/MUTE ACTL; conditions: both partners purified
T5 construct: SCREAM (SCRM, ICE1), Arabidopsis thaliana, At3G26744, ACT-like domain, residues 405-494; also called SCRM ACTL domain; source: E. coli BL21, purified (glutathione resin, thrombin, Superdex-200); not shown: GST, N-terminal, cleaved
T5 sequence (looked up): B1 chain with F80L

B1
stoichiometry N (SPCH-ACTL (285-364)): 0.85

B2
Kd [1]: 565 nM | Kd [2]: 545 nM | Kd [3]: 10.5 ± 2.1 nM | Kd (GST-fused SCRM (1-494)): 7.3 ± 1.5 nM

B3
Kd [4]: 68 ± 5.2 nM | Kd [3]: 9.6 ± 1.4 nM | Kd (GST-fused SCRM (1-494)): 8.2 ± 2.1 nM | Kd (GST-fused SCRMΔC (1-404)): 52 ± 3.6 nM

B4
stoichiometry N [5]: 1 | stoichiometry N (ΔNFAMA, recombinant): 1

B5
Kd (SCRM ACTL (405-494)): 5100 nM

B6
Kd [4]: 61 ± 4.2 nM | Kd [3]: 6.5 ± 1.6 nM | Kd (GST-fused SCRM (1-494)): 5.2 ± 1.1 nM | Kd (GST-fused SCRMΔC (1-404)): 68 ± 5.5 nM
